Assay results published in publication doi:10.1101/2024.09.22.614354 (bioRxiv, 2024).
Like-named read-outs stand apart in the source and are kept apart here. Where no end group is shown, it is not given here. TMR = tetramethyl rhodamine dye

T1: TMR-E2F1^TD (peptide of the E2F1 transactivation domain, N-labeled with tetramethyl rhodamine)
T1 peptide: {TMR}-GEGIRDLFDCDFGDLTPLD

B1: Rb^P E533K (domain or fragment)
chain: NTIQQLMMILNSASDQPSENLISYFNNCTVNPKESILKRVKDIGYIFKEKFAKAVGQGCVEIGSQRYKLGVRLYYRVMESMLKSEEERLSIQNFSKLLNDNIFHMSLLACALEVVMATYSRSTSQNLDSGTDLSFPWILNVLNLKAFDFYKVIKSFIKAEGNLTREMIKHLERCEHRIMESLAWLSDSPLFDLIKQSKDREGPTDHLESACPLNLPLQNNHTAADMYLSPVRSPKKKGSTTRVNSTANAETQATSAFQTQKPLKSTSLSLFYKKVYRLAYLRLNTLCERLLSEHPELEHIIWTLFQHTLQNEYELMRDRHLDQIMMCSMYGICKVKNIDLKFKIIVTAYKDLPHAVQETFKRVLIKEEEYDSIIVFYNSVFMQRLKTNILQYASTRPPTLSPIPHIPRS
B2: Rb^P K530I (domain or fragment)
chain: NTIQQLMMILNSASDQPSENLISYFNNCTVNPKESILKRVKDIGYIFKEKFAKAVGQGCVEIGSQRYKLGVRLYYRVMESMLKSEEERLSIQNFSKLLNDNIFHMSLLACALEVVMATYSRSTSQNLDSGTDLSFPWILNVLNLKAFDFYIVIESFIKAEGNLTREMIKHLERCEHRIMESLAWLSDSPLFDLIKQSKDREGPTDHLESACPLNLPLQNNHTAADMYLSPVRSPKKKGSTTRVNSTANAETQATSAFQTQKPLKSTSLSLFYKKVYRLAYLRLNTLCERLLSEHPELEHIIWTLFQHTLQNEYELMRDRHLDQIMMCSMYGICKVKNIDLKFKIIVTAYKDLPHAVQETFKRVLIKEEEYDSIIVFYNSVFMQRLKTNILQYASTRPPTLSPIPHIPRS
B3: Rb^P S474I (domain or fragment)
chain: NTIQQLMMILNSASDQPSENLISYFNNCTVNPKESILKRVKDIGYIFKEKFAKAVGQGCVEIGSQRYKLGVRLYYRVMESMLKSEEERLSIQNFIKLLNDNIFHMSLLACALEVVMATYSRSTSQNLDSGTDLSFPWILNVLNLKAFDFYKVIESFIKAEGNLTREMIKHLERCEHRIMESLAWLSDSPLFDLIKQSKDREGPTDHLESACPLNLPLQNNHTAADMYLSPVRSPKKKGSTTRVNSTANAETQATSAFQTQKPLKSTSLSLFYKKVYRLAYLRLNTLCERLLSEHPELEHIIWTLFQHTLQNEYELMRDRHLDQIMMCSMYGICKVKNIDLKFKIIVTAYKDLPHAVQETFKRVLIKEEEYDSIIVFYNSVFMQRLKTNILQYASTRPPTLSPIPHIPRS
B4: Rb^P R656Q (domain or fragment)
chain: NTIQQLMMILNSASDQPSENLISYFNNCTVNPKESILKRVKDIGYIFKEKFAKAVGQGCVEIGSQRYKLGVRLYYRVMESMLKSEEERLSIQNFSKLLNDNIFHMSLLACALEVVMATYSRSTSQNLDSGTDLSFPWILNVLNLKAFDFYKVIESFIKAEGNLTREMIKHLERCEHRIMESLAWLSDSPLFDLIKQSKDREGPTDHLESACPLNLPLQNNHTAADMYLSPVRSPKKKGSTTRVNSTANAETQATSAFQTQKPLKSTSLSLFYKKVYQLAYLRLNTLCERLLSEHPELEHIIWTLFQHTLQNEYELMRDRHLDQIMMCSMYGICKVKNIDLKFKIIVTAYKDLPHAVQETFKRVLIKEEEYDSIIVFYNSVFMQRLKTNILQYASTRPPTLSPIPHIPRS
B5: Rb^P S474R (domain or fragment)
chain: NTIQQLMMILNSASDQPSENLISYFNNCTVNPKESILKRVKDIGYIFKEKFAKAVGQGCVEIGSQRYKLGVRLYYRVMESMLKSEEERLSIQNFRKLLNDNIFHMSLLACALEVVMATYSRSTSQNLDSGTDLSFPWILNVLNLKAFDFYKVIESFIKAEGNLTREMIKHLERCEHRIMESLAWLSDSPLFDLIKQSKDREGPTDHLESACPLNLPLQNNHTAADMYLSPVRSPKKKGSTTRVNSTANAETQATSAFQTQKPLKSTSLSLFYKKVYRLAYLRLNTLCERLLSEHPELEHIIWTLFQHTLQNEYELMRDRHLDQIMMCSMYGICKVKNIDLKFKIIVTAYKDLPHAVQETFKRVLIKEEEYDSIIVFYNSVFMQRLKTNILQYASTRPPTLSPIPHIPRS
B6: Rb^P K548N (domain or fragment)
chain: NTIQQLMMILNSASDQPSENLISYFNNCTVNPKESILKRVKDIGYIFKEKFAKAVGQGCVEIGSQRYKLGVRLYYRVMESMLKSEEERLSIQNFSKLLNDNIFHMSLLACALEVVMATYSRSTSQNLDSGTDLSFPWILNVLNLKAFDFYKVIESFIKAEGNLTREMINHLERCEHRIMESLAWLSDSPLFDLIKQSKDREGPTDHLESACPLNLPLQNNHTAADMYLSPVRSPKKKGSTTRVNSTANAETQATSAFQTQKPLKSTSLSLFYKKVYRLAYLRLNTLCERLLSEHPELEHIIWTLFQHTLQNEYELMRDRHLDQIMMCSMYGICKVKNIDLKFKIIVTAYKDLPHAVQETFKRVLIKEEEYDSIIVFYNSVFMQRLKTNILQYASTRPPTLSPIPHIPRS
B7: Rb^P H555Y (domain or fragment)
chain: NTIQQLMMILNSASDQPSENLISYFNNCTVNPKESILKRVKDIGYIFKEKFAKAVGQGCVEIGSQRYKLGVRLYYRVMESMLKSEEERLSIQNFSKLLNDNIFHMSLLACALEVVMATYSRSTSQNLDSGTDLSFPWILNVLNLKAFDFYKVIESFIKAEGNLTREMIKHLERCEYRIMESLAWLSDSPLFDLIKQSKDREGPTDHLESACPLNLPLQNNHTAADMYLSPVRSPKKKGSTTRVNSTANAETQATSAFQTQKPLKSTSLSLFYKKVYRLAYLRLNTLCERLLSEHPELEHIIWTLFQHTLQNEYELMRDRHLDQIMMCSMYGICKVKNIDLKFKIIVTAYKDLPHAVQETFKRVLIKEEEYDSIIVFYNSVFMQRLKTNILQYASTRPPTLSPIPHIPRS
B8: Rb^P I703F (domain or fragment)
chain: NTIQQLMMILNSASDQPSENLISYFNNCTVNPKESILKRVKDIGYIFKEKFAKAVGQGCVEIGSQRYKLGVRLYYRVMESMLKSEEERLSIQNFSKLLNDNIFHMSLLACALEVVMATYSRSTSQNLDSGTDLSFPWILNVLNLKAFDFYKVIESFIKAEGNLTREMIKHLERCEHRIMESLAWLSDSPLFDLIKQSKDREGPTDHLESACPLNLPLQNNHTAADMYLSPVRSPKKKGSTTRVNSTANAETQATSAFQTQKPLKSTSLSLFYKKVYRLAYLRLNTLCERLLSEHPELEHIIWTLFQHTLQNEYELMRDRHLDQFMMCSMYGICKVKNIDLKFKIIVTAYKDLPHAVQETFKRVLIKEEEYDSIIVFYNSVFMQRLKTNILQYASTRPPTLSPIPHIPRS
B9: Rb^P S534R (domain or fragment)
chain: NTIQQLMMILNSASDQPSENLISYFNNCTVNPKESILKRVKDIGYIFKEKFAKAVGQGCVEIGSQRYKLGVRLYYRVMESMLKSEEERLSIQNFSKLLNDNIFHMSLLACALEVVMATYSRSTSQNLDSGTDLSFPWILNVLNLKAFDFYKVIERFIKAEGNLTREMIKHLERCEHRIMESLAWLSDSPLFDLIKQSKDREGPTDHLESACPLNLPLQNNHTAADMYLSPVRSPKKKGSTTRVNSTANAETQATSAFQTQKPLKSTSLSLFYKKVYRLAYLRLNTLCERLLSEHPELEHIIWTLFQHTLQNEYELMRDRHLDQIMMCSMYGICKVKNIDLKFKIIVTAYKDLPHAVQETFKRVLIKEEEYDSIIVFYNSVFMQRLKTNILQYASTRPPTLSPIPHIPRS

Tests used:
Experiment in all cases: fluorescence polarisation
[1] = molecular target: TMR-E2F1^TD (peptide of the E2F1 transactivation domain, N-labeled with tetramethyl rhodamine)
[2] = molecular target: T1, TMR-E2F1^TD (peptide of the E2F1 …)
[3] = molecular target: T1, TMR-E2F1^TD (peptide of the E2F1 …)

| Molecule | fold weaker binding relative to wild type [2] | further results |
| --- | --- | --- |
| Rb^P E544K (from UniProt P06400 380-788) (domain or fragment) | – | fold weaker binding relative to wild type [1]: 34 fold |
| B1 | 59 fold | – |
| B2 | 63 fold | – |
| B3 | 27 fold | – |
| B4 | 13 fold | – |
| B5 | 27 fold | – |
| B6 | 10 fold | – |
| B7 | 12 fold | – |
| B8 | ~5 fold | fold weaker binding at 37°C than at 25°C [3]: 6 fold; fold weaker binding relative to wild type [3]: 17 fold |
| B9 | 820 fold | – |
